Reference: US20220265715A1 (EUREKA THERAPEUTICS, published 2022)

Target: T1, biotinylated AFP158/HLA-A*02:01 tetramer (human, biotinylated via the BSP peptide linked to the C-terminal end of the HLA-A*02:01 extracellular domain)
T1 construct: also called AFP158 tetramer; not shown: BSP peptide (BirA biotinylation site) at the C-terminus
Experiment: flow cytometry, AFP158/HLA-A*02:01 tetramer staining of CAR-transduced T cells

| binding result | Binder |
| --- | --- |
| binds | Anti-AFP-CD28z-CAR (other, Chimeric antigen receptor on transduced primary human T cells: anti-AFP/MHC scFv, myc tag, CD28 TM, CD28 costimulatory domain, CD3zeta; also called αAFP -CD28z CAR) QSVLTQPASVSGSPGQSITISCTGTSSDVGGYNYVSWYQQHPGKAPKLMIYDVNNRPSEVSNRFSGSKSGNTASLTISGLQAEDEADYYCSSYTTGSRAVFGGGTKLTVLGSRGGGGSGGGGSGGGGSLEMAEVQLVQSGAEVKKPGESLTISCKASGYSFPNYWITWVRQMSGGGLEWMGRIDPGDSYTTYNPSFQGHVTISIDKSTNTAYLHWNSLKASDTAMYYCARYYVSLVDIWGQGTLVTVSSEQKLISEEDLAAAIEVMYPPPYLDNEKSNGTIIHVKGKHLCPSPLFPGPSKPFWVLVVVGGVLACYSLLVTVAFIIFWVRSKRSRLLHSDYMNMTPRRPGPTRKHYQPYAPPRDFAAYRSRVKFSRSADAPAYQQGQNQLYNELNLGRREEYDVLDKRRGRDPEMGGKPRRKNPQEGLYNELQKDKMAEAYSEIGMKGERRRGKGHDGLYQGLSTATKDTYDALHMQALPPR |
| binds | Anti-AFP-CD30z-CAR (other, Chimeric antigen receptor on transduced primary human T cells: anti-AFP/MHC scFv, myc tag, CD30 TM, CD30 costimulatory domain, CD3zeta; also called αAFP -CD30z CAR) QSVLTQPASVSGSPGQSITISCTGTSSDVGGYNYVSWYQQHPGKAPKLMIYDVNNRPSEVSNRFSGSKSGNTASLTISGLQAEDEADYYCSSYTTGSRAVFGGGTKLTVLGSRGGGGSGGGGSGGGGSLEMAEVQLVQSGAEVKKPGESLTISCKASGYSFPNYWITWVRQMSGGGLEWMGRIDPGDSYTTYNPSFQGHVTISIDKSTNTAYLHWNSLKASDTAMYYCARYYVSLVDIWGQGTLVTVSSEQKLISEEDLAAATGAPPLGTQPDCNPTPENGEAPASTSPTQSLLVDSQASKTLPIPTSAPVALSSTGKPVLDAGPVLFWVILVLVVVVGSSAFLLCHRRACRKRIRQKLHLCYPVQTSQPKLELVDSRPRRSSTQLRSGASVTEPVAEERGLMSQPLMETCHSVGAAYLESLPLQDASPAGGPSSPRDLPEPRVSTEHTNNKIEKIYIMKADTVIVGTVKAELPEGRGLAGPAEPELEEELEADHTPHYPEQETEPPLGSCSDVMLSVEEEGKEDPLPTAASGKRVKFSRSADAPAYQQGQNQLYNELNLGRREEYDVLDKRRGRDPEMGGKPRRKNPQEGLYNELQKDKMAEAYSEIGMKGERRRGKGHDGLYQGLSTATKDTYDALHMQALPPR |
